The record followed here is patent US20210171647A1 (WUXI BIOLOGICS SHANGHAI, published 2021).

Where a chain is given by its changes, count along the chain named.

What all share (assay): ELISA, antibody coated, OX40-ECD.His mutant supernatant; relative to silent alanine substitutions;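 also: captured OX40 mutant protein detected with HRP-labelled anti-His antibody, absorbance read-out, scaled to the mean signal of control mutants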
A general note: An ELISA detects its analyte on a solid surface through an enzyme-linked reagent.

One test concerns the target T1, human OX40-ECD.His Y119A (human, UniProt P43489 29-214).
T1 construct: extracellular domain; not shown: C-terminal His-tag
T1 sequence (looked up): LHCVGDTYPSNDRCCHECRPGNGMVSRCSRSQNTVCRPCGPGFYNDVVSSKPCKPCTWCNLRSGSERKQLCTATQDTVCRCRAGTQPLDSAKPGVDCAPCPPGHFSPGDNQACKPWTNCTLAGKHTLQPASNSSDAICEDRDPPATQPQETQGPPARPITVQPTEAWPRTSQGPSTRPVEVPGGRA

For another test, the target named is T2, human OX40-ECD.His N88A (human, UniProt P43489 29-214).
T2 construct: extracellular domain; not shown: C-terminal His-tag
T2 sequence (looked up): T1 sequence (looked up) with N60A, A91Y

In a further test the target is T3, human OX40-ECD.His L155A (human, UniProt P43489 29-214).
T3 construct: extracellular domain; not shown: C-terminal His-tag
T3 sequence (looked up): T1 sequence (looked up) with A91Y, L127A

The next test has as its target T4, human OX40-ECD.His L116A (human, UniProt P43489 29-214).
T4 construct: extracellular domain; not shown: C-terminal His-tag
T4 sequence (looked up): T1 sequence (looked up) with L88A, A91Y

The target in a further test is T5, human OX40-ECD.His Q114A (human, UniProt P43489 29-214).
T5 construct: extracellular domain; not shown: C-terminal His-tag
T5 sequence (looked up): T1 sequence (looked up) with Q86A, A91Y

A further test addresses T6, human OX40-ECD.His R65A (human, UniProt P43489 29-214).
T6 construct: extracellular domain; not shown: C-terminal His-tag
T6 sequence (looked up): T1 sequence (looked up) with R37A, A91Y

Another test deals with T7, human OX40-ECD.His D170A (human, UniProt P43489 29-214).
T7 construct: extracellular domain; not shown: C-terminal His-tag
T7 sequence (looked up): T1 sequence (looked up) with A91Y, D142A

The target of a further test is T8, human OX40-ECD.His L29A (human, UniProt P43489 29-214).
T8 construct: extracellular domain; not shown: C-terminal His-tag
T8 sequence (looked up): T1 sequence (looked up) with L1A, A91Y

The target of the next test is T9, human OX40-ECD.His T145A (human, UniProt P43489 29-214).
T9 construct: extracellular domain; not shown: C-terminal His-tag
T9 sequence (looked up): T1 sequence (looked up) with A91Y, T117A

Another test deals with T10, human OX40-ECD.His G131A (human, UniProt P43489 29-214).
T10 construct: extracellular domain; not shown: C-terminal His-tag
T10 sequence (looked up): T1 sequence (looked up) with A91Y, G103A

Protocol for human OX40-ECD.His D170A: (§1) After interacting with the supernatant that contains quantified OX40 mutants or human OX40-ECD.His protein, HRP conjugated anti-His antibody (1:5000, GenScript-A00612, CHN) was added as detection antibody. Absorbance was normalized according to the average of control mutants.
Protocol for human OX40-ECD.His G131A: as §1
Protocol for human OX40-ECD.His L116A: as §1
Protocol for human OX40-ECD.His L155A: as §1
Protocol for human OX40-ECD.His L29A: as §1
Protocol for human OX40-ECD.His N88A: as §1
Protocol for human OX40-ECD.His Q114A: as §1
Protocol for human OX40-ECD.His R65A: as §1
Protocol for human OX40-ECD.His T145A: as §1
Protocol for human OX40-ECD.His Y119A: as §1

B1: 1.134.9-u1-IgG1L (antibody, V domains shown)
VH: QVQLQESGPGLVKPSGTLSLTCAVSGGSISSYNWWSWVRQPPGKGLEWIGEIYHGGNTNYNPSLKSRVTMSVDNSKNQFSLKLSSVTAADTAVYYCARAPGDWGGSPYFDFWGQGTLVTVSS
VL: SSELTQDPAVSVALGQTVRITCQGDNLRTYYASWYQQKPGQAPILLIYGRNKRPSGIPDRFSGSSSGNTASLTITGAQAEDEAAYYCNSRDSSGNPVVFGGGTKLTVL
notes: fully human IgG1, lambda
Regarding B1, the “Fold Change” value in the test with human OX40-ECD.His Y119A worked out at 0.995; in the test with human OX40-ECD.His N88A, 0.429; with human OX40-ECD.His L155A it was 0.959; with human OX40-ECD.His L116A, 0.982; with human OX40-ECD.His Q114A, 0.79; with human OX40-ECD.His R65A, 0.996. In addition, the “Fold Change” value with human OX40-ECD.His D170A is 1.01; with human OX40-ECD.His L29A, 1; with human OX40-ECD.His T145A it was 0.675; in the test with human OX40-ECD.His G131A, 0.958.
